*1 amine or outer side, *2 acyl side, *3 side chain or, on linkers, in order; H or OH if unused. Bridges are numbered along the chain shown (N, C = ends). Primed or numbered codes have the meaning given here. Where no end group is shown, it is not given here. [ ]: non-standard residue; d: D form. The star is where a group is joined. Azetidine3carboxylic = O=C(C1CN([*:1])C1)[*:2]; dimethyl = N-terminal dimethyl modification; PEG4″ = PEG4 (tetraethylene glycol) spacer; 2Nal = N[C@@H](Cc1ccc2ccccc2c1)C(=O)O; d2Nal = N[C@H](Cc1ccc2ccccc2c1)C(=O)O; NMeCha = CN[C@@H](CC1CCCCC1)C(=O)O; NMeR = CN[C@@H](CCCNC(=N)N)C(=O)O; Palmitoyl = CCCCCCCCCCCCCCCC(=O)*; hArg = N=C(N)NCCCC[C@H](N)C(=O)O; NMeQ = CN[C@@H](CCC(N)=O)C(=O)O; Cha = N[C@@H](CC1CCCCC1)C(=O)O; dCha = N[C@H](CC1CCCCC1)C(=O)O; Cba = N[C@@H](CC1CCC1)C(=O)O; S5 = C=CCCC[C@](C)(N)C(=O)O; Nle = CCCC[C@H](N)C(=O)O; Ac4c = NC1(C(=O)O)CCC1

First the molecules themselves.
T1: β-catenin (UniProt P35222 1-781, limits assumed)
T1 construct: also called beta-catenin
T1 sequence (looked up): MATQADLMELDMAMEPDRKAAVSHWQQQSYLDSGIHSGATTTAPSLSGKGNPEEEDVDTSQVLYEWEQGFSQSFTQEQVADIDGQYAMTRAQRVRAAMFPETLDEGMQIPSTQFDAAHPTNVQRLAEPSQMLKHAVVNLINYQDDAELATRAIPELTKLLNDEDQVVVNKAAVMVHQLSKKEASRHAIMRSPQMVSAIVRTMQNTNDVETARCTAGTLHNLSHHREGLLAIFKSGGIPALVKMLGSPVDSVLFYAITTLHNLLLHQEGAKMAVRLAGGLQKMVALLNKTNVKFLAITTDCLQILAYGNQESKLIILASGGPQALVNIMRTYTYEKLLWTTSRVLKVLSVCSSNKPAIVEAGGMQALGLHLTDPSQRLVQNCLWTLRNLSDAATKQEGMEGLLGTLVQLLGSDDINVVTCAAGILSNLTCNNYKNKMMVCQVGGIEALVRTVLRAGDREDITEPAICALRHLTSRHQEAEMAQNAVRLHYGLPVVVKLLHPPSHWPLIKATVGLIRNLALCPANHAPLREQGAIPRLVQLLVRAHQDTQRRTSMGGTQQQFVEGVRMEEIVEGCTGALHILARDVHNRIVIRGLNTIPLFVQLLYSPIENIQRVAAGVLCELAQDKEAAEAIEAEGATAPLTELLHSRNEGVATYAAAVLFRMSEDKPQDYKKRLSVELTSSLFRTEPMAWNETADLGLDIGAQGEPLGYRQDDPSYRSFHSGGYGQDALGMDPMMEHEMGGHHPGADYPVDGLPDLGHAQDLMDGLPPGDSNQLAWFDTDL

B1: SEQ ID NO: 188 (peptide)
peptide: Ac-HRQRSLQTLR[S5]IQR[S5][Cha][d2Nal]-NH2
modifications: staple 11-15
SMILES: CC[C@H](C)[C@@H]1NC(=O)[C@@](C)(NC(=O)[C@H](CCCNC(=N)N)NC(=O)[C@H](CC(C)C)NC(=O)[C@@H](NC(=O)[C@H](CCC(N)=O)NC(=O)[C@H](CC(C)C)NC(=O)[C@H](CO)NC(=O)[C@H](CCCNC(=N)N)NC(=O)[C@H](CCC(N)=O)NC(=O)[C@H](CCCNC(=N)N)NC(=O)[C@H](Cc2c[nH]cn2)NC(C)=O)[C@@H](C)O)CCCC=CCCC[C@@](C)(C(=O)N[C@@H](CC2CCCCC2)C(=O)N[C@H](Cc2ccc3ccccc3c2)C(N)=O)NC(=O)[C@H](CCCNC(=N)N)NC(=O)[C@H](CCC(N)=O)NC1=O
B2: SEQ ID NO: 184 (peptide)
peptide: Ac-HRQ[NMeR]SLQTLR[S5]IQR[S5][Cha][2Nal]-NH2
modifications: staple 11-15
SMILES: CC[C@H](C)[C@@H]1NC(=O)[C@@](C)(NC(=O)[C@H](CCCNC(=N)N)NC(=O)[C@H](CC(C)C)NC(=O)[C@@H](NC(=O)[C@H](CCC(N)=O)NC(=O)[C@H](CC(C)C)NC(=O)[C@H](CO)NC(=O)[C@H](CCCNC(=N)N)N(C)C(=O)[C@H](CCC(N)=O)NC(=O)[C@H](CCCNC(=N)N)NC(=O)[C@H](Cc2c[nH]cn2)NC(C)=O)[C@@H](C)O)CCCC=CCCC[C@@](C)(C(=O)N[C@@H](CC2CCCCC2)C(=O)N[C@@H](Cc2ccc3ccccc3c2)C(N)=O)NC(=O)[C@H](CCCNC(=N)N)NC(=O)[C@H](CCC(N)=O)NC1=O
B3: SEQ ID NO: 174 (peptide)
peptide: Ac-LQTLR[S5]IQR[S5][NMeCha][2Nal]-NH2
modifications: staple 6-10; not fully specified (residue 2); printed as L(N-methylQ)TLRXIQRX(N-methylCha)(2-Nal); also: N-methylQ at 2: D or L (both stated)
B4: SEQ ID NO: 173 (peptide)
peptide: Ac-LQTLR[S5]IQR[S5][dCha][2Nal]-NH2
modifications: staple 6-10; not fully specified (residue 2); printed as L(N-methylQ)TLRXIQRXD(Cha)(2-Nal); also: N-methylQ at 2: D or L (both stated)
B5: SEQ ID NO: 183 (peptide)
peptide: Ac-H[hArg]QRSLQTLR[S5]IQR[S5][Cha][2Nal]-NH2
modifications: staple 11-15
SMILES: CC[C@H](C)[C@@H]1NC(=O)[C@@](C)(NC(=O)[C@H](CCCNC(=N)N)NC(=O)[C@H](CC(C)C)NC(=O)[C@@H](NC(=O)[C@H](CCC(N)=O)NC(=O)[C@H](CC(C)C)NC(=O)[C@H](CO)NC(=O)[C@H](CCCNC(=N)N)NC(=O)[C@H](CCC(N)=O)NC(=O)[C@H](CCCCNC(=N)N)NC(=O)[C@H](Cc2c[nH]cn2)NC(C)=O)[C@@H](C)O)CCCC=CCCC[C@@](C)(C(=O)N[C@@H](CC2CCCCC2)C(=O)N[C@@H](Cc2ccc3ccccc3c2)C(N)=O)NC(=O)[C@H](CCCNC(=N)N)NC(=O)[C@H](CCC(N)=O)NC1=O
B6: SEQ ID NO: 178 (peptide)
peptide: Ac-HRQRSLQTLR[S5]IQR[S5][Azetidine3carboxylic][2Nal]-NH2
modifications: staple 11-15
SMILES: CC[C@H](C)[C@@H]1NC(=O)[C@@](C)(NC(=O)[C@H](CCCNC(=N)N)NC(=O)[C@H](CC(C)C)NC(=O)[C@@H](NC(=O)[C@H](CCC(N)=O)NC(=O)[C@H](CC(C)C)NC(=O)[C@H](CO)NC(=O)[C@H](CCCNC(=N)N)NC(=O)[C@H](CCC(N)=O)NC(=O)[C@H](CCCNC(=N)N)NC(=O)[C@H](Cc2c[nH]cn2)NC(C)=O)[C@@H](C)O)CCCC=CCCC[C@@](C)(C(=O)N2CC(C(=O)N[C@@H](Cc3ccc4ccccc4c3)C(N)=O)C2)NC(=O)[C@H](CCCNC(=N)N)NC(=O)[C@H](CCC(N)=O)NC1=O
B7: SEQ ID NO: 189 (peptide)
peptide: Ac-HRQRSLQTL[NMeR][S5]IQR[S5][Cha][2Nal]-NH2
modifications: staple 11-15
SMILES: CC[C@H](C)[C@@H]1NC(=O)[C@@](C)(NC(=O)[C@H](CCCNC(=N)N)N(C)C(=O)[C@H](CC(C)C)NC(=O)[C@@H](NC(=O)[C@H](CCC(N)=O)NC(=O)[C@H](CC(C)C)NC(=O)[C@H](CO)NC(=O)[C@H](CCCNC(=N)N)NC(=O)[C@H](CCC(N)=O)NC(=O)[C@H](CCCNC(=N)N)NC(=O)[C@H](Cc2c[nH]cn2)NC(C)=O)[C@@H](C)O)CCCC=CCCC[C@@](C)(C(=O)N[C@@H](CC2CCCCC2)C(=O)N[C@@H](Cc2ccc3ccccc3c2)C(N)=O)NC(=O)[C@H](CCCNC(=N)N)NC(=O)[C@H](CCC(N)=O)NC1=O
B8: SEQ ID NO: 158 (peptide)
peptide: Ac-H[NMeR]QRSLQTLR[S5]IQR[S5][Cba][2Nal]-NH2
modifications: staple 11-15; not fully specified; printed as H(R-Me)QRSLQTLRXIQRX(CBA)(2-Nal), X/X stapled, (S) α-methyl, N-terminal Ac, C-terminal NH2

This experiment deals with T1, β-catenin. As to the kind of experiment: ALPHA Screen (BCL9/β-catenin).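 Further: bead proximity readout with the polypeptide linked to donor beads and β-catenin fixed on acceptor beads, their binding bringing the beads close enough to emit signal.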
Excerpt: In this assay, a polypeptide is conjugated to a donor bead and its target protein (i.e., β-catenin) is attached to an acceptor bead. When the two beads are in proximity due to the binding of the polypeptide to the target protein, a signal is generated and the binding affinity of the polypeptide can be quantitatively calculated. The assay may be conducted in the presence or absence of an unconjugated control polypeptide.
As usually defined, the IC50 is the concentration needed to halve the response being measured. A high value points to weaker potency. Molecule LQTLR[Nle]IQR[Nle]L[2Nal]PD [SEQ ID NO: 54] displayed an IC50 of 14600 nM.
B1 came in with an IC50 of 387 nM.
For B2 the value was 195 nM; for Ac-HRQRSLQTLR[S5]IQR[S5][Ac4c][2Nal]-NH2 (staple 11-15) [SEQ ID NO: 176], 236 nM.
As for Ac-RERSLQTLR[S5]IQR[S5]L[2Nal]-NH2 (staple 10-14; not fully specified; printed as RERSLQTLRXIQRXL(2-Nal)) [SEQ ID NO: 5], the figure is 1450 nM; as for Ac-QERSLQTLR[S5]IQR[S5]L[2Nal]-NH2 (staple 10-14; not fully specified; printed as QERSLQTLRXIQRXL(2-Nal)) [SEQ ID NO: 10], 4200 nM.
For Ac-RERSLQTLR[S5]IQR[S5][Cba][2Nal]-NH2 (staple 10-14; not fully specified; printed as RERSLQTLRXIQRX(CBA)(2-Nal)) [SEQ ID NO: 13] the value was 844 nM; for B3, 6880 nM.
B4 gave an IC50 of 14700 nM. This IC50 lies about 2.1-fold higher than the previous one.
For B5 the value was 119 nM; for B6, 563 nM.
As for dimethyl-L[NMeQ]TLR[S5]IQR[S5][Cba][2Nal]-NH2 (staple 6-10; not fully specified) [SEQ ID NO: 144], the figure is 2130 nM.
For B7 the value was 247 nM.
As for {Palmitoyl-PEG4″}-HRQRSLQTLR[S5]IQR[S5][Cba][2Nal]-NH2 (staple 11-15) [SEQ ID NO: 160], the midpoint of inhibition, the IC50, lay at 361 nM.
As for Ac-HRQRSL[NMeQ]TLR[S5]IQR[S5][Cba][2Nal]-NH2 (staple 11-15) [SEQ ID NO: 153], the figure is 261 nM; as for B8, 383 nM.
For Ac-HR[NMeQ]RSL[NMeQ]TLR[S5]IQR[S5][Cba][2Nal]-NH2 (staple 11-15) [SEQ ID NO: 155] the value was 281 nM.

These data come from US20200262867A1 (WNTRX PHARMACEUTICALS, published 2020).
